Results as given in patent US20090202520A1.

Molecular target: soluble recombinant FcγRIIIB (sFcγRIIIB) (UniProt O75015)
Assay: SPR, comparison of SAP and CRP affinities

Sequence of soluble recombinant FcγRIIIB (sFcγRIIIB) (O75015 17-200): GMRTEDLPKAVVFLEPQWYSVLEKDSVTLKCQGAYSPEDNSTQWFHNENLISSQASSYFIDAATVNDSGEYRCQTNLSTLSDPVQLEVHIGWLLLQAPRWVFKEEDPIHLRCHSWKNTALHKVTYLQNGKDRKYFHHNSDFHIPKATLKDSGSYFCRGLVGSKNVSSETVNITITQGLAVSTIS

Question: With “serum amyloid P (SAP) (from UniProt P02743 20-223) (ligand; other documents disagree on this pair)” as the substance, how does the fold affinity of SAP over CRP for the same receptor read?
Answer: The fold affinity of SAP over CRP for the same receptor was 1000 fold.
